Patent US20240199745A1, “ANTI-EGFR ANTIBODY DRUG CONJUGATES” (priority 2016, published 2024)

B1: AbA-CZ (antibody, human IgG1, kappa, V domains shown)
VH: EVQLQESGPGLVKPSQTLSLTCTVSGYSISRDFAWNWIRQPPGKGLEWMGYISYNGNTRYQPSLKSRITISRDTSKNQFFLKLNSVTAADTATYYCVTASRGFPYWGQGTLVTVSS
VL: DIQMTQSPSSMSVSVGDRVTITCHSSQDINSNIGWLQQKPGKSFKGLIYHGTNLDDGVPSRFSGSGSGTDYTLTISSLQPEDFATYYCVQYAQFPWTFGGGTKLEIKR
modifications: synthon CZ on reduced interchain cysteines; average DAR 3.2 per ADC
B2: AbG-ZT (antibody, human IgG1, kappa, V domains shown)
VH: EVQLQESGPGLVKPSQTLSLTCTVSGYSISNDFAWNWIRQLPGKGLEWMGYISYKGNTRYQPSLKSRITISRDTSKNQFFLKLNSVTAADTATYYCVTASRGLPYWGQGTLVTVSS
VL: DIQMTQSPSSMSVSVGDRVTITCHSSQDITYNIGWLQQKPGKSFKGLIYHGANLDDGVPSRFSGSGSGTDYTLTISSLQPEDFATYYCVQYDEFPWTFGGGTKLEIKR
modifications: synthon ZT on reduced interchain cysteines; average DAR 1.6 per ADC
B3: AbB-ZT (antibody, human IgG1, kappa, V domains shown)
VH: EVQLQESGPGLVKPSQTLSLTCTVSGYSISNDFAWNWIRQPPGKGLEWMGYISYKGNTRYQPSLKSRITISRDTSKNQFFLKLNSVTAADTATYYCVTASRGFPWWGQGTLVTVSS
VL: DIQMTQSPSSMSVSVGDRVTITCHSSQDINSNIGWLQQKPGKSFKGLIYHGTNLDDGVPSRFSGSGSGTDYTLTISSLQPEDFATYYCVQYAQFPWTFGGGTKLEIKR
modifications: synthon ZT on reduced interchain cysteines; average DAR 1.4 per ADC
B4: AbB-YG (antibody, human IgG1, kappa, V domains shown)
VH: EVQLQESGPGLVKPSQTLSLTCTVSGYSISNDFAWNWIRQPPGKGLEWMGYISYKGNTRYQPSLKSRITISRDTSKNQFFLKLNSVTAADTATYYCVTASRGFPWWGQGTLVTVSS
VL: DIQMTQSPSSMSVSVGDRVTITCHSSQDINSNIGWLQQKPGKSFKGLIYHGTNLDDGVPSRFSGSGSGTDYTLTISSLQPEDFATYYCVQYAQFPWTFGGGTKLEIKR
modifications: synthon YG on reduced interchain cysteines; average DAR 1.1 per ADC
B5: AbB-SE (antibody, human IgG1, kappa, V domains shown)
VH: EVQLQESGPGLVKPSQTLSLTCTVSGYSISNDFAWNWIRQPPGKGLEWMGYISYKGNTRYQPSLKSRITISRDTSKNQFFLKLNSVTAADTATYYCVTASRGFPWWGQGTLVTVSS
VL: DIQMTQSPSSMSVSVGDRVTITCHSSQDINSNIGWLQQKPGKSFKGLIYHGTNLDDGVPSRFSGSGSGTDYTLTISSLQPEDFATYYCVQYAQFPWTFGGGTKLEIKR
modifications: synthon SE on reduced interchain cysteines; average DAR 2.2 per ADC
B6: AbA-SE (antibody, human IgG1, kappa, V domains shown)
VH: EVQLQESGPGLVKPSQTLSLTCTVSGYSISRDFAWNWIRQPPGKGLEWMGYISYNGNTRYQPSLKSRITISRDTSKNQFFLKLNSVTAADTATYYCVTASRGFPYWGQGTLVTVSS
VL: DIQMTQSPSSMSVSVGDRVTITCHSSQDINSNIGWLQQKPGKSFKGLIYHGTNLDDGVPSRFSGSGSGTDYTLTISSLQPEDFATYYCVQYAQFPWTFGGGTKLEIKR
modifications: synthon SE on reduced interchain cysteines; average DAR 2.8 per ADC
B7: AbA-XW (antibody, human IgG1, kappa, V domains shown)
VH: EVQLQESGPGLVKPSQTLSLTCTVSGYSISRDFAWNWIRQPPGKGLEWMGYISYNGNTRYQPSLKSRITISRDTSKNQFFLKLNSVTAADTATYYCVTASRGFPYWGQGTLVTVSS
VL: DIQMTQSPSSMSVSVGDRVTITCHSSQDINSNIGWLQQKPGKSFKGLIYHGTNLDDGVPSRFSGSGSGTDYTLTISSLQPEDFATYYCVQYAQFPWTFGGGTKLEIKR
modifications: synthon XW on reduced interchain cysteines; average DAR 3.7 per ADC
B8: AbA-SR (antibody, human IgG1, kappa, V domains shown)
VH: EVQLQESGPGLVKPSQTLSLTCTVSGYSISRDFAWNWIRQPPGKGLEWMGYISYNGNTRYQPSLKSRITISRDTSKNQFFLKLNSVTAADTATYYCVTASRGFPYWGQGTLVTVSS
VL: DIQMTQSPSSMSVSVGDRVTITCHSSQDINSNIGWLQQKPGKSFKGLIYHGTNLDDGVPSRFSGSGSGTDYTLTISSLQPEDFATYYCVQYAQFPWTFGGGTKLEIKR
modifications: synthon SR on reduced interchain cysteines; average DAR 2.3 per ADC
B9: AbA-AAA (antibody, human IgG1, kappa, V domains shown)
VH: EVQLQESGPGLVKPSQTLSLTCTVSGYSISRDFAWNWIRQPPGKGLEWMGYISYNGNTRYQPSLKSRITISRDTSKNQFFLKLNSVTAADTATYYCVTASRGFPYWGQGTLVTVSS
VL: DIQMTQSPSSMSVSVGDRVTITCHSSQDINSNIGWLQQKPGKSFKGLIYHGTNLDDGVPSRFSGSGSGTDYTLTISSLQPEDFATYYCVQYAQFPWTFGGGTKLEIKR
modifications: synthon AAA on reduced interchain cysteines; average DAR 2 per ADC
B10: AbG-ZZ (antibody, human IgG1, kappa, V domains shown)
VH: EVQLQESGPGLVKPSQTLSLTCTVSGYSISNDFAWNWIRQLPGKGLEWMGYISYKGNTRYQPSLKSRITISRDTSKNQFFLKLNSVTAADTATYYCVTASRGLPYWGQGTLVTVSS
VL: DIQMTQSPSSMSVSVGDRVTITCHSSQDITYNIGWLQQKPGKSFKGLIYHGANLDDGVPSRFSGSGSGTDYTLTISSLQPEDFATYYCVQYDEFPWTFGGGTKLEIKR
modifications: synthon ZZ on reduced interchain cysteines; average DAR 1.4 per ADC
B11: AbB-XW (antibody, human IgG1, kappa, V domains shown)
VH: EVQLQESGPGLVKPSQTLSLTCTVSGYSISNDFAWNWIRQPPGKGLEWMGYISYKGNTRYQPSLKSRITISRDTSKNQFFLKLNSVTAADTATYYCVTASRGFPWWGQGTLVTVSS
VL: DIQMTQSPSSMSVSVGDRVTITCHSSQDINSNIGWLQQKPGKSFKGLIYHGTNLDDGVPSRFSGSGSGTDYTLTISSLQPEDFATYYCVQYAQFPWTFGGGTKLEIKR
modifications: synthon XW on reduced interchain cysteines; average DAR 3.2 per ADC
B12: AbB-SR (antibody, human IgG1, kappa, V domains shown)
VH: EVQLQESGPGLVKPSQTLSLTCTVSGYSISNDFAWNWIRQPPGKGLEWMGYISYKGNTRYQPSLKSRITISRDTSKNQFFLKLNSVTAADTATYYCVTASRGFPWWGQGTLVTVSS
VL: DIQMTQSPSSMSVSVGDRVTITCHSSQDINSNIGWLQQKPGKSFKGLIYHGTNLDDGVPSRFSGSGSGTDYTLTISSLQPEDFATYYCVQYAQFPWTFGGGTKLEIKR
modifications: synthon SR on reduced interchain cysteines; average DAR 2.1 per ADC
B13: AbB-ZZ (antibody, human IgG1, kappa, V domains shown)
VH: EVQLQESGPGLVKPSQTLSLTCTVSGYSISNDFAWNWIRQPPGKGLEWMGYISYKGNTRYQPSLKSRITISRDTSKNQFFLKLNSVTAADTATYYCVTASRGFPWWGQGTLVTVSS
VL: DIQMTQSPSSMSVSVGDRVTITCHSSQDINSNIGWLQQKPGKSFKGLIYHGTNLDDGVPSRFSGSGSGTDYTLTISSLQPEDFATYYCVQYAQFPWTFGGGTKLEIKR
modifications: synthon ZZ on reduced interchain cysteines; average DAR 1.1 per ADC
B14: AbA-KZ (antibody, human IgG1, kappa, V domains shown)
VH: EVQLQESGPGLVKPSQTLSLTCTVSGYSISRDFAWNWIRQPPGKGLEWMGYISYNGNTRYQPSLKSRITISRDTSKNQFFLKLNSVTAADTATYYCVTASRGFPYWGQGTLVTVSS
VL: DIQMTQSPSSMSVSVGDRVTITCHSSQDINSNIGWLQQKPGKSFKGLIYHGTNLDDGVPSRFSGSGSGTDYTLTISSLQPEDFATYYCVQYAQFPWTFGGGTKLEIKR
modifications: synthon KZ on reduced interchain cysteines; average DAR 2 per ADC
B15: AbA-YG (antibody, human IgG1, kappa, V domains shown)
VH: EVQLQESGPGLVKPSQTLSLTCTVSGYSISRDFAWNWIRQPPGKGLEWMGYISYNGNTRYQPSLKSRITISRDTSKNQFFLKLNSVTAADTATYYCVTASRGFPYWGQGTLVTVSS
VL: DIQMTQSPSSMSVSVGDRVTITCHSSQDINSNIGWLQQKPGKSFKGLIYHGTNLDDGVPSRFSGSGSGTDYTLTISSLQPEDFATYYCVQYAQFPWTFGGGTKLEIKR
modifications: synthon YG on reduced interchain cysteines; average DAR 1.9 per ADC
B16: AbB-KZ (antibody, human IgG1, kappa, V domains shown)
VH: EVQLQESGPGLVKPSQTLSLTCTVSGYSISNDFAWNWIRQPPGKGLEWMGYISYKGNTRYQPSLKSRITISRDTSKNQFFLKLNSVTAADTATYYCVTASRGFPWWGQGTLVTVSS
VL: DIQMTQSPSSMSVSVGDRVTITCHSSQDINSNIGWLQQKPGKSFKGLIYHGTNLDDGVPSRFSGSGSGTDYTLTISSLQPEDFATYYCVQYAQFPWTFGGGTKLEIKR
modifications: synthon KZ on reduced interchain cysteines; average DAR 1.9 per ADC
B17: AbA-YY (antibody, human IgG1, kappa, V domains shown)
VH: EVQLQESGPGLVKPSQTLSLTCTVSGYSISRDFAWNWIRQPPGKGLEWMGYISYNGNTRYQPSLKSRITISRDTSKNQFFLKLNSVTAADTATYYCVTASRGFPYWGQGTLVTVSS
VL: DIQMTQSPSSMSVSVGDRVTITCHSSQDINSNIGWLQQKPGKSFKGLIYHGTNLDDGVPSRFSGSGSGTDYTLTISSLQPEDFATYYCVQYAQFPWTFGGGTKLEIKR
modifications: synthon YY on reduced interchain cysteines; average DAR 2.2 per ADC

Key:
[1] = molecular target: human EGFR (huEGFR) over-expressed on mcl-1-/- mouse embryonic fibroblasts (human, UniProt P00533 25-1210); experiment: cell-based or functional assay
[2] = molecular target: EGFR on EGFR positive non-small cell lung cancer cells NCI-H1650 (UniProt P00533 25-1210); experiment: cell-based or functional assay

Binder	huEGFR+ mcl-1-/- MEF EC50 [1] [µM]	H1650 CTG-3D EC50 [2] [µg/mL]	H1650 GFP Flourescence EC50 [2] [µg/mL]
B1	0.0003	0.88	1.24
B2	0.033	0.1	0.08
B3	0.0089	0.26	0.64
B4	0.0033	3.28	1.55
B5	0.039	0.59	2.18
B6	0.105	4	4.23
B7	0.032	> 40	> 40
B8	0.0059	2.12	2.22
B9	0.22	0.65	0.98
B10	0.068	0.47	0.44
B11	0.00065	6.92	12.1
B12	0.007	0.62	2.1
B13	0.0074	0.52	0.61
B14	0.152	> 40	29.3
B15	0.0064	3.8	2.84
B16	0.055	16.5	37.7
B17	0.46	> 40	7.85
